From article PMC4837377 (Scientific Reports, 2016) come the findings set out here.

For orientation: stoichiometry N means the number of molecules, sites or subunits per partner or assembly.

First the molecules themselves.
B1: RanBP5 (residues 1-1115) co-expressed in the PA-PB1(1-686)-RanBP5 polyprotein (construct 21) (natural protein)
chain: MPEDQVGKLEATENTISAMAAAAAEQQQFYLLLGNLLSPDNVVRKQAEETYENIPGQSKITFLLQAIRNTTAAEEARQMAAVLLRRLLSSAFDEVYPALPSDVQTAIKSELLMIIQMETQSSMRKKVCDIAAELARNLIDEDGNNQWPEGLKFLFDSVSSQNVGLREAALHIFWNFPGIFGNQQQHYLDVIKRMLVQCMQDQEHPSIRTLSARATAAFILANEHNVALFKHFADLLPGFLQAVNDSCYQNDDSVLKSLVEIADTVPKYLRPHLEATLQLSLKLCGDTSLNNMQRQLALEVIVTLSETAAAMLRKHTNIVAQTIPQMLAMMVDLEEDEDWANADELEDDDFDSNAVAGESALDRMACGLGGKLVLPMIKEHIMQMLQNPDWKYRHAGLMALSAIGEGCHQQMEGILNEIVNFVLLFLQDPHPRVRYAACNAVGQMATDFAPGFQKKFHEKVIAALLQTMEDQGNQRVQAHAAAALINFTEDCPKSLLIPYLDNLVKHLHSIMVLKLQELIQKGTKLVLEQVVTSIASVADTAEEKFVPYYDLFMPSLKHIVENAVQKELRLLRGKTIECISLIGLAVGKEKFMQDASDVMQLLLKTQTDFNDMEDDDPQISYMISAWARMCKILGKEFQQYLPVVMGPLMKTASIKPEVALLDTQDMENMSDDDGWEFVNLGDQQSFGIKTAGLEEKSTACQMLVCYAKELKEGFVEYTEQVVKLMVPLLKFYFHDGVRVAAAESMPLLLECARVRGPEYLTQMWHFMCDALIKAIGTEPDSDVLSEIMHSFAKCIEVMGDGCLNNEHFEELGGILKAKLEEHFKNQELRQVKRQDEDYDEQVEESLQDEDDNDVYILTKVSDILHSIFSSYKEKVLPWFEQLLPLIVNLICPHRPWPDRQWGLCIFDDVIEHCSPASFKYAEYFLRPMLQYVCDNSPEVRQAAAYGLGVMAQYGGDNYRPFCTEALPLLVRVIQSADSKTKENVNATENCISAVGKIMKFKPDCVNVEEVLPHWLSWLPLHEDKEEAVQTFNYLCDLIESNHPIVLGPNNTNLPKIFSIIAEGEMHEAIKHEDPCAKRLANVVRQVQTSGGLWTECIAQLSPEQQAAIQELLNSA
B2: PA-PB1(1-686) heterodimer (construct 1) (complex)
chain 1: […]
chain 2: MDVNPTLLFLKVPAQNAISTTFPYTGDPPYSHGTGTGYTMDTVNRTHQYSEKGKWTTNTETGAAQLNPIDGPLPEDNEPSGYAQTDCVLEAMAFLEESHPGIFENSCLETMEVVQQTRVDRLTQGRQTYDWTLNRNQPAATALANTIEVFRSNGLIANESGRLIDFLKDVIESMDKEEMEITTHFQRKRRVRDNMTKKMVTQRTIGKKKQRVNKRSYLIRALTLNTMTKDAERGKLKRRAIATPGMQIRGFVYFVETLARSICEKLEQSGLPVGGNEKKAKLANVVRKMMTNSQDTELSFTITGDNTKWNENQNPRMFLAMITYITKNQPEWFRNILSIAPIMFSNKMARLGKGYMFESKRMKLRTQIPAEMLASIDLKYFNESTRKKIEKIRPLLIDGTASLSPGMMMGMFNMLSTVLGVSILNLGQKKYTKTTYWWDGLQSSDDFALIVNAPNHEGIQAGVDRFYRTCKLVGINMSKKKSYINRTGTFEFTSFFYRYGFVANFSMELPSFGVSGINESADMSIGVTVIKNNMINNDLGPATAQMALQLFIKDYRYTYRCHRGDTQIQTRRSFELKKLWEQTRSKAGLLVSDGGPNLYNIRNLHIPEVCLKWELMDEDYQGRLCNPLNPFVSHKEIESVNNAVVMPAHGPAKSMEYDAVATTHSWIPKRNRSILNTSQRGILEDE

For experiment [1], the target named is B2. Briefly: SEC-SAXS. Particulars: both partners purified. On the technique in general: Size exclusion chromatography separates by hydrodynamic size, large species first.
Experiment [2] addresses B1. Briefly: co-purification (nickel resin, heparin, SEC). As to conditions: partners not purified.

Take B1: the “stoichiometry N” value in experiment [1] came to 1.

Consider B2, for which the binding result in experiment [2] is “binds”.
